# Test results reported in article PMC3834829, “A signature motif mediating selective interactions of BCL11A with the NR2E/F subfamily of orphan nuclear receptors” (Nucleic Acids Research, 2013).
# Residue numbers refer to the chain shown, from its start. Names and notes keep the numbering of the source.
# T1: LexA-COUP-TFII-LBD-(144–414) (UniProt P24468 144-414)
# T1 construct: the bait copy of the LBD in the dimer assay; same residues as m19; also called wild-type COUP-TFII LBD; full-length LBD; source: yeast two-hybrid fusion (S. cerevisiae L40)
# T1 sequence (looked up): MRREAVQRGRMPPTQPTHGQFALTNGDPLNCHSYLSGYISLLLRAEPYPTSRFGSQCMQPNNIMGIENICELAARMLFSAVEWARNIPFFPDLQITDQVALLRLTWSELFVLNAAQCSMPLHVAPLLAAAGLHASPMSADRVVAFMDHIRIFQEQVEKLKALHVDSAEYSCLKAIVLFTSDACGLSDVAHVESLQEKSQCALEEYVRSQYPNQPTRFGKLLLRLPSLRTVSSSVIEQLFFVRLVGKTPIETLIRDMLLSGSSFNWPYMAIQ
# B1: AAD-COUP-TFII-LBD V224A (domain or fragment, UniProt P24468 144-414, looked up)
# chain: T1 sequence (looked up) with V81A
# notes: expressed at a 2-fold lower level than the other constructs of the series; also called V224A mutant; source: yeast two-hybrid fusion (S. cerevisiae L40)
# B2: AAD-COUP-TFII-LBD-(144–414) (domain or fragment)
# chain: T1 sequence (looked up)
# B3: AAD-EAR2-LBD-(121–399) (domain or fragment)
# chain: MRKEAVQRGRIPHSLPGAVAASSGSPPGSALAAVASGGDLFPGQPVSELIAQLLRAEPYPAAAGRFGAGGGAAGAVLGIDNVCELAARLLFSTVEWARHAPFFPELPVADQVALLRLSWSELFVLNAAQAALPLHTAPLLAAAGLHAAPMAAERAVAFMDQVRAFQEQVDKLGRLQVDSAEYGCLKAIALFTPDACGLSDPAHVESLQEKAQVALTEYVRAQYPSQPQRFGRLLLRLPALRAVPASLISQLFFMRLVGKTPIETLIRDMLLSGSTFNWP
# Target: AAD-LRH-1-LBD-(133–495) (UniProt O00482)
# Assay: yeast two-hybrid
# Details: parent: est. 1100; read off a plot
# AAD-LRH-1-LBD-(133–495), sequence (O00482 133-495): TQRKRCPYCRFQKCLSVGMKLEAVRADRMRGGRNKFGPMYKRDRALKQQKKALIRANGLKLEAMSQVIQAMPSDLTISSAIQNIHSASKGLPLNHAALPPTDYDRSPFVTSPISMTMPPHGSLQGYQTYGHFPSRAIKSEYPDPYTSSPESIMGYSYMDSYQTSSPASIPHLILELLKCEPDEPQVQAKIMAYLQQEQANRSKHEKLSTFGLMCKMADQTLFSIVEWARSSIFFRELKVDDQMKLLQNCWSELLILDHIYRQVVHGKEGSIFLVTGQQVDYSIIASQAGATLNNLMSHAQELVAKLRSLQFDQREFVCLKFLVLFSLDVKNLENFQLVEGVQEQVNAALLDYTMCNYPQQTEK
row,response [nmol/mg/min],Molecule
1,310,LexA-NSD1-(790–818) F803A
2,0,LexA-NSD1-(790–818) L806A
3,660,LexA-NSD1-(790–818) D812A
4,0,LexA-NSD1-(790–818) M809A
5,470,LexA-NSD1-(790–818) L807A
6,690,LexA-NSD1-(790–818) Y801A
7,710,LexA-NSD1-(790–818) K811A
8,0,LexA-NSD1-(790–818) L810A
9,900,LexA-NSD1-(790–818) M808A
10,0,LexA-NSD1-(790–818) S804A
11,1300,LexA-NSD1-(790–818) K802A

# Target: T1, LexA-COUP-TFII-LBD-(144–414)
# Assay: two-hybrid; S. cerevisiae L40; LexA DBD fusion with VP16 AAD-NR fusion; β-galactosidase activity in cell-free extracts; vehicle only or no ligand
# Details: partners not purified
row,fold reduction of reporter activation due to homodimer formation [fold],Molecule
1,~2.5,B1

# Target: LexA-BCL11A RID1 R320A (UniProt Q9H165)
# Assay: as above
# Details: not given
row,fold lower reporter activity than wild-type RID1 [fold],Molecule
1,5,B2

# Target: LexA-BCL11A RID1 F315A (UniProt Q9H165)
# Assay: as above
# Details: not given
row,fold lower reporter activation than wild-type RID1 [fold],Molecule
1,2,B3

# Target: LexA-BCL11A RID1 R317A (UniProt Q9H165)
# Assay: as above
# Details: not given
row,fold lower reporter activity than wild-type RID1 [fold],Molecule
1,5,B2
